Test results published in US7981863B2, “Treatment of Parkinson's disease with PDGF” (Neuronova AB, priority 2001, dated 2011).

B1: BDNF: Human recombinant BDNF (brain derived neurotrophic factor), used as a positive control (protein, UniProt P23560 19-247, looked up)
Neurotrophic factor BDNF …: APMKEANIRGQGGLAYPGVRTHGTLESVNGPKAGSRGLTSLADTFEHVIEELLDEDQKVRPNEENNKDADLYTSRVMLSSQVPLEPPLLFLLEEYKNYLDAANMSMRVRRHSDPARRGELSVCDSISEWVTAADKKTAVDMSGGTVTVLEKVPVSKGQLKQYFYETKCNPMGYTKEGCRGIDKRHWNSQCRTTQSYVRALTMDSKKRIGWRFIRIDTSCVCTLTIKRGR
B2: VEGF-A165: VEGF isoform that can bind to flk-1, flt-1 and neuropilin-1 (protein)
chain: APMAEGGGQNHHEVVKFMDVYQRSYCHPIETLVDIFQEYPDEIEYIFKPSCVPLMRCGGCCNDEGLECVPTEESNITMQIMRIKPHQGQHIGEMSFLQHNKCECRPKKDRARQENPCGPCSERRKHLFVQDPQTCKCSCKNTDSRCKARQLELNERTCRCDKPRR
B3: VEGF-A121: VEGF isoform that can only bind to the Flk-1 receptor (protein)
chain: APMAEGGGQNHHEVVKFMDVYQRSYCHPIETLVDIFQEYPDEIEYIFKPSCVPLMRCGGCCNDEGLECVPTEESNITMQIMRIKPHQGQHIGEMSFLQHNKCECRPKKDRARQEKCDKPRR

How the values were obtained:
6-OHDA Lesioned Rats = assay: i.c.v. infusion in 6-OHDA lesioned rats, BrdU / NeuN labelling; assay type: in vivo, rat; settings: for numbers of BrdU labelled cells in the denervated striatum: compared to PBS infusion
Protocol: Animal handling and surgical procedures were carried out according to the ethical and regulatory permits set forth by Jordbruksverket and Lund University. Adult female Sprague-Dawley rats (B&K Universal AB) rats weighing 220-250 g, were housed in pairs with a 12 h light-dark cycle with free access to food and water. To lesion the substantia nigra, rats were fixed into a stereotaxic frame and 6-OHDA ([…] in 0.02% ascorbate saline, Sigma) was injected at a rate of 1 μl/min in 2 deposits of 2 and 2.5 μl into the right ascending mesostriatal forebrain bundle at the following coordinates: 4.4 mm caudal to bregma, 1.2 mm lateral to midline, 7.8 mm below dura; 4.0 mm caudal, 0.8 mm lateral, 8.0 mm below dura, respectively (Paxinos and Watson, 1998). Three weeks after 6-OHDA injections, the completeness of the lesion was assessed with the amphetamine-induced rotation test. D-methylamphetamine (2.5 mg, i.p.) was injected 5 min prior to placing the rat in an automated rotormeter bowl that measured the number of rotations over 90 min.
Before implantation, an Alzet Model 2002 osmotic minipump (200 μl; flow rate: 0.5 μl/h, 12 μl/day) was prefilled with 200 μl of compound solution (see below) and placed in a NaCl (0.9%) solution warmed in water bath (37° C.) 36 hrs before implantation. Rats were anesthetized with halothane in a mixture of nitrous oxide/oxygen (70:30) and maintained with 2-3% halothane. For implantation, rats were placed in a stereotaxic frame and the cannula of the Alzet Brain Infusion kit II was placed into the right lateral ventricle (coordinates: AP=−0.3 mm posterior bregma, L=1.5 mm lateral to satura sagittalis, 4.5 mm the dura; Paxinos and Watson, 1998), and secured to the skull with screws and dental cement. The minipump was then placed subcutaneously in the mid-scapular region. The scalp was treated with lidocaine gel before suturing. Twelve days after insertion, the rats were briefly anaesthetized with halothane in order to remove the pump. Removed pumps had the remaining solution volume and weight recorded.
The effects of infused PDGF-BB and BDNF following 6-OHDA lesions were investigated at 2 different time points: at 12 days or 5 weeks after minipump insertion. Rats receiving human PDGF-BB (order # 220-BB-050; 50 μg, R&D Systems) each had 36 ng/d of PDGF dissolved in 0.1 M PBS (3 μg/ml). Rats receiving human recombinant BDNF (order # 248-BD-025; 25 μg, R&D Systems) each had 12 ng/d of BDNF dissolved in 0.1 M PBS (1 μg/ml). BrdU was co-administered with the compound solution in the minipumps by dissolving it into the 0.1 M PBS medium. Control rats received only BrdU/PBS infusions.
Brain tissue was obtained by anesthetizing the rat and transcardially perfusing with 0.9% saline followed by 4% paraformaldehyde (PFA). Brains were stored PFA for 2 hours, then transferred to 20% sucrose PBS and sectioned coronally on a sledge microtome at 30 μm thickness. Free-floating sections were stored in Walter's antifreeze solution at 4° C. until staining.
Following blocking, incubation of monoclonal rat anti-BrdU antibody (Harlan Sera Lab, UK) in 2% blocking solution occurred at a dilution of 1:100 at 4° C. for 36 hrs. The sections were then incubated with biotin-horse-[…] antibody (1:200) (Vector, CA) in 2% blocking solution for 2 hr and visualized with DAB-NiCl Vectastain Elite kit. The procedure for doubling labeling of BrdU with NeuN or TH was similar, except that a monoclonal rat anti-BrdU antibody (1:100; Sigma, Sweden) was incubated either with a monoclonal mouse anti-NeuN antibody (1:100; Chemicon, USA) or with a monoclonal anti-TH antibody (1:1000; Pelfreeze) in the appropriate 2% blocking solution in the dark for 36 to 48 hrs. For immunofluorescent visualization, sections were incubation in secondary antibodies: Cy3-conjugated donkey anti-rat (1:200; Jackson ImmunoResearch, PA) for BrdU; a biotinylated horse anti-mouse antibody (1:200; BA2001, Vector, CA) for NeuN; and a FITC-conjugated goat anti-rat (1:200;) for TH. […]

Healthy Rats = assay: ICV infusion in healthy rats, BrdU / NeuN labelling; assay type: in vivo, rat
Protocol: Male rats (12 hours light/dark regime; feeding and drinking ad libitum; 5 animals in standard cage) were infused (Alzet minipumps) in the left lateral ventricle with human recombinant PDGF-BB for 7 days at a daily dose of 36 ng/day (8 animals/group). Human recombinant BDNF (brain derived neurotrophic factor) was used as a positive control (Pencea V et al., J. Neurosci Sep. 1 (2001), 21(17):6706-17). Bromodeoxyuridine (BrdU) was also included in the infusion vehicle (artificial cerebrospinal fluid) to enable measurement of proliferation by quantitation of BrdU incorporation in the DNA. Animals were sacrificed at 7 (proliferation) or 28 days (neurogenesis) after start of treatment and brains were dissected and prepared for sectioning and immunohistochemistry (Pencea V et al., J. Neurosci Sep. 1 (2001), 21(17):6706-17).
Proliferation was measured by BrdU incorporation and diaminobenzidine (DAB) staining of HRP conjugated secondary antibodies (FIG. 7). Cells were counted in a phase contrast microscope. Neural phenotype was assessed by staining for neuronal marker NeuN by immunocytochemistry using a fluorescence readout. The secondary antibodies were labeled with FITC or Alexa Fluor568. In double staining analyses designed to measure neurogenesis, BrdU and NeuN were quantitated by fluorescence (above) and counting of cells was done in a confocal microscope. For further experimental details, see Pencea V et al., J. Neurosci Sep. 1 (2001), 21(17):6706-17. A number of brain regions were analysed.

[1] = test system: rat neural stem cells from the adult lateral ventricle wall; assay: Expansion of rat neural stem cell cultures, total cell counts at 7 days; assay type: cell-based; settings: different concentrations, 7 days; FIG. 24, FIG. 25
Protocol: Neural stem cells were prepared according to the attached protocol. Cells were grown in serum-free medium, subcloned and used between passage 6 and 10. If not otherwise mentioned the experiments consisted of triplets for analysis and were independently repeated at least 3 times.
Basal Medium: Neurobasal medium (NB, Gibco BRL) & B27 supplement (Gibco BRL).
Growth Medium: NB, B27 supplement+20 ng/ml of FGF-2 (R&D Systems)+20 ng/ml EGF (R&D Systems)+2 μg/ml heparin (Sigma, Germany).
Cells were plated in Growth medium at 10.000 cells/ml and after 2 days switched to the experimental condition. Cells were kept under the experimental condition for 7 days.
Adult female Fischer-344 rats (3-4 months; Charles River, Germany) were killed via cervical dislocation, the brains of each rat were removed and stored at 4° C. in DPBS (PAN, Germany) with 4.5 g/L glucose (Merck, Germany) (DPBS/glu). Overlying meninges and blood vessels were removed. Ependymal zone including subependymal/subventricular zone form the lateral wall of the lateral ventricle were aseptically removed. […] Live cells were counted by trypan blue exclusion assay in a hemocytometer. […]
The culture medium containing floating neurospheres was collected in a 15 ml centrifuge tube and centrifuged at 800 rpm. […] An aliquot was counted by trypan blue exclusion assay in a hemocytometer to determine the amount of live and dead cells. […]

Molecule	absolute number of BrdU/NeuN double labelled cells in the striatum (6-OHDA Lesioned Rats; 5 weeks, FIG. 15)	numbers of BrdU labelled cells in the denervated striatum (6-OHDA Lesioned Rats; 12 days after infusion, PDGF 36 ng/d, BDNF 12 ng/d)	numbers of BrdU labelled cells in the lesioned substantia nigra (6-OHDA Lesioned Rats; 12 days after infusion, compared to PBS treatment)	BrdU cells in the striatum co-labelled with NeuN (proportion of newly generated neurons) (6-OHDA Lesioned Rats; Week 5, no statistically significant differences) [%]	numbers of BrdU labelled cells in the denervated striatum (6-OHDA Lesioned Rats; at 5 weeks)	Cell count (BrdU, proliferation) along the lateral ventricle wall (Healthy Rats; 7-day group, ICV infusion 7 days, 36 ng/day, mean of two sections, mean +/- sem)	number of proliferating cells in the subventricular zone (Healthy Rats; 28-day group)	neurogenesis in the striatum (Healthy Rats; 28-day group, in comparison to vehicle treated animals)	BrdU positive cells in the dentate gyrus, the CA1 and the alveus (Healthy Rats; 28-day group, in comparison to vehicle-treated animals)	BrdU positive cells in the striatum (Healthy Rats; 28-day group, cells counted in 300 × 300 μm squares)	stimulation of proliferation of neural stem cell cultures [1]
B1	significantly more neurons	significantly elevated	significantly elevated	16.6	significant increases	177 +/−15	slight effect	significantly increase neurogenesis	no significant effect	39.8 ± 7.3 (p < 0.01 to vehicle, ANOVA)	
B2											significant stimulation
B3											significant stimulation
